Broadly, the Kd is a measure of binding affinity in units of concentration. High values mean a looser complex, low ones a tighter complex.

Assay [1] deals with T1, truncated hTfR1 of SEQ ID NO:122 (human, UniProt P02786 122-760).
T1 construct: also called human TfR1; Human TfR1
Put plainly: SPR, TfR1 amine-coupled, Fab injected, 1:1 fit. On the procedure:
(§1) Binding of the purified Fabs to human and cynomolgus TfR1 was evaluated using either SPR (FIG. 44) or indirect ELISA (FIG. 45). For SPR, a Biacore 8K instrument (Cytiva) was used. […] The Fabs were injected over the chip using a 2-fold dilution series in four steps starting at 100 nM. The interaction was measured using the single cycle kinetics method with a contact time of 120 s at a flow rate of 30 μl/min followed by a dissociation time of 1000 s. Regeneration of the surface between cycles was done by injecting 3M MgCl₂. The binding data was fitted to a 1:1 interaction model. The Fabs were diluted in HBS-EP+ (Cytiva, #BR100669). Experiments were performed at 25° C.

Assay [2] concerns the target T2, truncated cTfR1 of SEQ ID NO:123 (cynomolgus monkey, UniProt Q5RDH6 122-760 (Pongo abelii entry)).
T2 construct: also called cynomolgus TfR1
T2 chain: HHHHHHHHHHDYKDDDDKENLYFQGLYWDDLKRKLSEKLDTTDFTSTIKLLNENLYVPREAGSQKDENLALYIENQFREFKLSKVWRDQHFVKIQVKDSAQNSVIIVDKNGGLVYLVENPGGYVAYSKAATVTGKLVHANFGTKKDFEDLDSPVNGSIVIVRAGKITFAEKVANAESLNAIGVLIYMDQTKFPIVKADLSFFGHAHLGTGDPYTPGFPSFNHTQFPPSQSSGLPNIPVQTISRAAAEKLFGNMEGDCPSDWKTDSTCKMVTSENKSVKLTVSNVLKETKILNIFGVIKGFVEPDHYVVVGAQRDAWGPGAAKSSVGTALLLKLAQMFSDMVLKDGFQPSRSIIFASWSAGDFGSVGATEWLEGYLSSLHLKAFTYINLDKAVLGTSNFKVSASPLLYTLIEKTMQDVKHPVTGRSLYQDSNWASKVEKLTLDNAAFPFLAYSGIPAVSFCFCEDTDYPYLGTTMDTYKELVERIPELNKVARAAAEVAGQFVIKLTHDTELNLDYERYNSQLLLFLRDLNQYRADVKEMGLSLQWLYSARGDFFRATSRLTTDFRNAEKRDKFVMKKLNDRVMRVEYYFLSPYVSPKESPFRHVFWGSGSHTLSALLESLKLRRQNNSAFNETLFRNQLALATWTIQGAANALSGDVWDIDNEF
Kind of assay: SPR, TfR1 amine-coupled, Fab injected, 1:1 fit. On the procedure: as §1
For orientation: SPR reads the build-up and loss of mass on a sensor chip optically.

For assay [3], the target named is T3, ectodomain of human TfR1 (His10-hTfR1; SEQ ID NO:110) (human, UniProt P02786 89-760).
T3 construct: also called ectodomain of hTfR1
Kind of assay: indirect ELISA: plate coated with 1 µg/ml hTfR1 ectodomain, Fab in 1:3 serial dilution, anti-human IgG F(ab')2-HRP. On the procedure:
For the indirect ELISA, half area 96-well plates (Corning, #3690) were coated with 1 μg/ml recombinant ectodomain of hTfR1 (SEQ ID NO:110) in PBS overnight at 4° C. The coated plates were blocked using Pierce protein-free blocking solution (Thermo Fisher Scientific, #37572) for 1 h at room temperature with shaking and washed four times in PBS containing 0.1% TWEEN-20. Serial dilutions (1:3) of various expressed constructs in incubation buffer (1% BSA, 0.1% TWEEN-20 in PBS) were incubated for 1 h at room temperature. […] Following four wash steps, K-Blue® Aqueous TMB substrate (Neogen, #331177) was added to the wells for 15 min at room temperature before the reaction was stopped with 1:1 dilution of 0.5 M H₂SO₄. The optical density at 450 nm was recorded (Spark, Tecan) and background signal was subtracted before analysis.
Background: ELISA stands for enzyme-linked immunosorbent assay.

T1 sequence (P02786 other isoform, or with tags, fused parts or gaps limits assumed): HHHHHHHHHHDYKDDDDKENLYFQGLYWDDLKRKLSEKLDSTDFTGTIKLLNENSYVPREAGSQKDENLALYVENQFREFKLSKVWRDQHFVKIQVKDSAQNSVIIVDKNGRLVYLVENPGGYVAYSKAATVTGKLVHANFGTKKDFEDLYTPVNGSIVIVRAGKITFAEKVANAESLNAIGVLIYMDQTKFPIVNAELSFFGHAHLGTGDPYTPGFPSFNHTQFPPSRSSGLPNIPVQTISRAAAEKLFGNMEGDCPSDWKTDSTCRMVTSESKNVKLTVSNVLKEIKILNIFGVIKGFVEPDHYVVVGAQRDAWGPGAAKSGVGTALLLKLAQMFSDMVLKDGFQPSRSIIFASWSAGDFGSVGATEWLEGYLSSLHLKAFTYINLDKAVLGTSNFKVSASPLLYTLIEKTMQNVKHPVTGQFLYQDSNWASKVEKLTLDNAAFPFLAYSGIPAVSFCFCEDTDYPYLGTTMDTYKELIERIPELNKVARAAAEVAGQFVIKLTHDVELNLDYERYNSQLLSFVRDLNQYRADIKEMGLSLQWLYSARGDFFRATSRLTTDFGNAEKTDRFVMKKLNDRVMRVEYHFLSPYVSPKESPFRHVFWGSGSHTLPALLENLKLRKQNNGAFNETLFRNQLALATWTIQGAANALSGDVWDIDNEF

B1: h26D3 variant HC8 Fab (Fab, V domains shown)
VH: EVQLVQSGAEVKKPGSSVKVSCKASGYIFTDYNMDWVRQAPGQGLEWIGDINPDYDTTSANEKFKGRATLTVDKSTSTAYMELSSLRSEDTAVYYCARGGYSGSSYYHPMDYWGQGTLVTVSS
VL: DIQMTQSPSSVSASVGDRVTITCKSSQSLLYSTNQKNYLAWYQQKPGKAPKLLIYWASTRESGVPSRFSGSGSGTDFTLTISSLQPEDFATYYCQQYFIYPRTFGQGTKVEIK
notes: Single-mutant His-tagged Fab; also called Y60A
Consider B1, for which the Kd was 10 nM in assay [1] and 19 nM in assay [2].

B2: h26D3-HC8/LC5 (Fab, V domains shown)
VH: EVQLVQSGAEVKKPGSSVKVSCKASGYIFTDYNMDWVRQAPGQGLEWIGDINPDYDTTSANEKFKGRATLTVDKSTSTAYMELSSLRSEDTAVYYCARGGYSGSSYYHPMDYWGQGTLVTVSS
VL: DIQMTQSPSSVSASVGDRVTITCKSSQSLLYSTNQKNYLAWYQQKPGKAPKLLIYWASTRESGVPSRFSGSGSGTDFTLTISSLQPEDFATYYCQQAFIYPRTFGQGTKVEIK
notes: His-tagged Fab; also called double alanine mutant of h26D3 (VH Y60A, VL Y97A)
For the molecule B2, the binding result in assay [3] is reported as “binds”.

B3: h26D3-HC3/LC5 (Fab, V domains shown)
VH: EVQLVQSGAEVKKPGSSVKVSCKASGYIFTDYNMAWVRQAPGQGLEWIGDINPDYDTTSYNEKFKGRATLTVDKSTSTAYMELSSLRSEDTAVYYCARGGYSGSSYYHPMDYWGQGTLVTVSS
VL: DIQMTQSPSSVSASVGDRVTITCKSSQSLLYSTNQKNYLAWYQQKPGKAPKLLIYWASTRESGVPSRFSGSGSGTDFTLTISSLQPEDFATYYCQQAFIYPRTFGQGTKVEIK
notes: His-tagged Fab; also called double alanine mutant of h26D3 (VH D35A, VL Y97A)
On to B3, for which the binding result in assay [3] is given as “binds”.

B4: h26D3 variant HC11 Fab (Fab, V domains shown)
VH: EVQLVQSGAEVKKPGSSVKVSCKASGYIFTDYNMDWVRQAPGQGLEWIGDINPDYDTTSYNEKFKGRATLTVDKSTSTAYMELSSLRSEDTAVYYCARGGYSGSSYAHPMDYWGQGTLVTVSS
VL: DIQMTQSPSSVSASVGDRVTITCKSSQSLLYSTNQKNYLAWYQQKPGKAPKLLIYWASTRESGVPSRFSGSGSGTDFTLTISSLQPEDFATYYCQQYFIYPRTFGQGTKVEIK
notes: Single-mutant His-tagged Fab; also called Y107A
Regarding B4, the Kd in assay [1] is 388 nM; in assay [2], 2.7 nM.

B5: h26D3 variant HC10 Fab (Fab, V domains shown)
VH: EVQLVQSGAEVKKPGSSVKVSCKASGYIFTDYNMDWVRQAPGQGLEWIGDINPDYDTTSYNEKFKGRATLTVDKSTSTAYMELSSLRSEDTAVYYCARGGYSGSSAYHPMDYWGQGTLVTVSS
VL: DIQMTQSPSSVSASVGDRVTITCKSSQSLLYSTNQKNYLAWYQQKPGKAPKLLIYWASTRESGVPSRFSGSGSGTDFTLTISSLQPEDFATYYCQQYFIYPRTFGQGTKVEIK
notes: Single-mutant His-tagged Fab; also called Y106A
For the molecule B5, the results for the Kd in assay [1] and in assay [2] were 9.2 nM and 4.6 nM, respectively.

B6: h26D3 variant LC1 Fab (Fab, V domains shown)
VH: EVQLVQSGAEVKKPGSSVKVSCKASGYIFTDYNMDWVRQAPGQGLEWIGDINPDYDTTSYNEKFKGRATLTVDKSTSTAYMELSSLRSEDTAVYYCARGGYSGSSYYHPMDYWGQGTLVTVSS
VL: DIQMTQSPSSVSASVGDRVTITCKSSQSLLASTNQKNYLAWYQQKPGKAPKLLIYWASTRESGVPSRFSGSGSGTDFTLTISSLQPEDFATYYCQQYFIYPRTFGQGTKVEIK
notes: Single-mutant His-tagged Fab; also called Y31A
For the molecule B6, the Kd in assay [1] is 14 nM; in assay [2] it was 70 nM.

B7: h26D3-HC8/LC1 (Fab, V domains shown)
VH: EVQLVQSGAEVKKPGSSVKVSCKASGYIFTDYNMDWVRQAPGQGLEWIGDINPDYDTTSANEKFKGRATLTVDKSTSTAYMELSSLRSEDTAVYYCARGGYSGSSYYHPMDYWGQGTLVTVSS
VL: DIQMTQSPSSVSASVGDRVTITCKSSQSLLASTNQKNYLAWYQQKPGKAPKLLIYWASTRESGVPSRFSGSGSGTDFTLTISSLQPEDFATYYCQQYFIYPRTFGQGTKVEIK
notes: His-tagged Fab; also called double alanine mutant of h26D3 (VH Y60A, VL Y31A)
Take B7: the binding result in assay [3] is “binds”.

B8: h26D3-HC6/LC5 (Fab, V domains shown)
VH: EVQLVQSGAEVKKPGSSVKVSCKASGYIFTDYNMDWVRQAPGQGLEWIGDINPDADTTSYNEKFKGRATLTVDKSTSTAYMELSSLRSEDTAVYYCARGGYSGSSYYHPMDYWGQGTLVTVSS
VL: DIQMTQSPSSVSASVGDRVTITCKSSQSLLYSTNQKNYLAWYQQKPGKAPKLLIYWASTRESGVPSRFSGSGSGTDFTLTISSLQPEDFATYYCQQAFIYPRTFGQGTKVEIK
notes: His-tagged Fab; also called double alanine mutant of h26D3 (VH Y55A, VL Y97A)
For the molecule B8, the binding result in assay [3] was “binds”.

B9: h26D3-HC3/LC1 (Fab, V domains shown)
VH: EVQLVQSGAEVKKPGSSVKVSCKASGYIFTDYNMAWVRQAPGQGLEWIGDINPDYDTTSYNEKFKGRATLTVDKSTSTAYMELSSLRSEDTAVYYCARGGYSGSSYYHPMDYWGQGTLVTVSS
VL: DIQMTQSPSSVSASVGDRVTITCKSSQSLLASTNQKNYLAWYQQKPGKAPKLLIYWASTRESGVPSRFSGSGSGTDFTLTISSLQPEDFATYYCQQYFIYPRTFGQGTKVEIK
notes: His-tagged Fab; also called double alanine mutant of h26D3 (VH D35A, VL Y31A)
For the molecule B9, the binding result in assay [3] was “binds”.

B10: h26D3 variant LC6 Fab (Fab, V domains shown)
VH: EVQLVQSGAEVKKPGSSVKVSCKASGYIFTDYNMDWVRQAPGQGLEWIGDINPDYDTTSYNEKFKGRATLTVDKSTSTAYMELSSLRSEDTAVYYCARGGYSGSSYYHPMDYWGQGTLVTVSS
VL: DIQMTQSPSSVSASVGDRVTITCKSSQSLLYSTNQKNYLAWYQQKPGKAPKLLIYWASTRESGVPSRFSGSGSGTDFTLTISSLQPEDFATYYCQQYFIAPRTFGQGTKVEIK
notes: Single-mutant His-tagged Fab; also called Y100A
As to B10, the Kd was found to be 8.5 nM in assay [1] and 9.4 nM in assay [2].

B11: h26D3-HC10/LC5 (Fab, V domains shown)
VH: EVQLVQSGAEVKKPGSSVKVSCKASGYIFTDYNMDWVRQAPGQGLEWIGDINPDYDTTSYNEKFKGRATLTVDKSTSTAYMELSSLRSEDTAVYYCARGGYSGSSAYHPMDYWGQGTLVTVSS
VL: DIQMTQSPSSVSASVGDRVTITCKSSQSLLYSTNQKNYLAWYQQKPGKAPKLLIYWASTRESGVPSRFSGSGSGTDFTLTISSLQPEDFATYYCQQAFIYPRTFGQGTKVEIK
notes: His-tagged Fab; also called double alanine mutant of h26D3 (VH Y106A, VL Y97A)
Take B11: in assay [3], the binding result is “binds”.

B12: h26D3-HC6/LC1 (Fab, V domains shown)
VH: EVQLVQSGAEVKKPGSSVKVSCKASGYIFTDYNMDWVRQAPGQGLEWIGDINPDADTTSYNEKFKGRATLTVDKSTSTAYMELSSLRSEDTAVYYCARGGYSGSSYYHPMDYWGQGTLVTVSS
VL: DIQMTQSPSSVSASVGDRVTITCKSSQSLLASTNQKNYLAWYQQKPGKAPKLLIYWASTRESGVPSRFSGSGSGTDFTLTISSLQPEDFATYYCQQYFIYPRTFGQGTKVEIK
notes: His-tagged Fab; also called double alanine mutant of h26D3 (VH Y55A, VL Y31A)
On to B12, for which, in assay [3], the binding result is “binds”.

B13: h26D3-HC10/LC1 (Fab, V domains shown)
VH: EVQLVQSGAEVKKPGSSVKVSCKASGYIFTDYNMDWVRQAPGQGLEWIGDINPDYDTTSYNEKFKGRATLTVDKSTSTAYMELSSLRSEDTAVYYCARGGYSGSSAYHPMDYWGQGTLVTVSS
VL: DIQMTQSPSSVSASVGDRVTITCKSSQSLLASTNQKNYLAWYQQKPGKAPKLLIYWASTRESGVPSRFSGSGSGTDFTLTISSLQPEDFATYYCQQYFIYPRTFGQGTKVEIK
notes: His-tagged Fab; also called double alanine mutant of h26D3 (VH Y106A, VL Y31A)
Take B13: the binding result in assay [3] is reported as “binds”.

Values taken from patent publication US20250388664A1 (BIOARCTIC, published 2025).
